Data on three molecules can be found in publication PMC9546227, “Cysteines have a role in conformation of the UVR8 photoreceptor” (The Plant Journal, 2022).

What is called stoichiometry N is a count of units in the complex or per binding partner.

For data set [1], the target named is T1, UV … LOCUS 8 (UVR8), wild-type, purified (Arabidopsis thaliana), Q9FN03.
T1 chain: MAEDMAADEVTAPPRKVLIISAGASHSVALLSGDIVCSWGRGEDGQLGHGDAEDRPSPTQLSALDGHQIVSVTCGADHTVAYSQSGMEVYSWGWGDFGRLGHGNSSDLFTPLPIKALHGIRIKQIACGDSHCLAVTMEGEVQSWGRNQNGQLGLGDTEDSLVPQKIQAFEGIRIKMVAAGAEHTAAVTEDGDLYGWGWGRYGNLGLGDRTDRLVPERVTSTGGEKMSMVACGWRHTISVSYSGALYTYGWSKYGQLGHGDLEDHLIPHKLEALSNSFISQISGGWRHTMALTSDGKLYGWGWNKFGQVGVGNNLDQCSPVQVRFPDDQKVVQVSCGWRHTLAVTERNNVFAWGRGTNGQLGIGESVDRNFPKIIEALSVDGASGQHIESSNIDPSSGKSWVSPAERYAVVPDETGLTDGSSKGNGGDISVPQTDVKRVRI
In words: SDS-PAGE with non-boiled samples; purified protein not exposed to UV-B; 10% gel, Coomassie stain; dimer to monomers. The note with it: remark: other sources report otherwise.

Data set [2] deals with the molecule itself. In words: SDS-PAGE with non-boiled samples; protein extracts of 14-day-old plants not exposed to UV-B (also after return to white light following UV-B, re-dimerization); immunoblot with anti-UVR8-C; dimer to monomers. In general terms: A western blot detects proteins with antibodies after separation by electrophoresis.
Data set [3] deals with the molecule itself. In words: SDS-PAGE with non-boiled samples; purified protein not exposed to UV-B; 10% gel, Coomassie stain; dimer to monomers.

Positions count from the first letter of the chain named. Names may count otherwise.

B1: UV … LOCUS 8 (UVR8), wild-type, purified, Q9FN03 1-440 (natural protein)
chain: T1 chain
Molecule B1 had a stoichiometry N in data set [1] of 2.

B2: GFP-UVR8^C231S,C335S (uvr8-1/35Spro:GFP-UVR8^C231S,C335S plants) (natural protein, Arabidopsis thaliana, UniProt Q9FN03 1-440, looked up)
chain: T1 chain with C231S, C335S
notes: UVR8, Arabidopsis thaliana, with C231S and C335S; Cloned into the pEZR(K)L-C vector by the methods of Cloix et al. (2012); also called GFP-UVR8^SS; source: transgenic Arabidopsis uvr8-1/CaMV35Spro:GFP-UVR8^C231S,C335S, in protein extract
For the molecule B2, the “stoichiometry N” value in data set [2] is 2.

B3: UVR8^C231S,C335S, purified (natural protein, Arabidopsis thaliana, UniProt Q9FN03 1-440, looked up)
chain: T1 chain with C231S, C335S
notes: UVR8, Arabidopsis thaliana, with C231S and C335S; also called UVR8^SS; source: E. coli, purified (as detailed by Christie et al., 2012)
As to B3, the “stoichiometry N” value in data set [3] amounted to 2.
